Consider three molecules from publication PMC12288907 (JCI Insight, 2025).

In experiment [1] the target is recombinant soluble trimeric H3 HA of A/Hong Kong/1/1968 H3N2 (HK68 H3) (Influenza A virus A/Hong Kong/1/1968 …, UniProt Q91MA7). The experiment can be described thus: ELISA. The conditions noted are these: both partners purified. A general note: An ELISA detects its analyte on a solid surface through an enzyme-linked reagent.
In experiment [2] the target is recombinant soluble trimeric H3 HA of A/Hong Kong/1/1968 H3N2 (Influenza A virus A/Hong Kong/1/1968 …, UniProt Q91MA7). The experiment can be described thus: ELISA. The conditions noted are these: both partners purified.
Sequence of recombinant soluble trimeric H3 HA of A/Hong Kong/1/1968 H3N2 (Q91MA7 17-530): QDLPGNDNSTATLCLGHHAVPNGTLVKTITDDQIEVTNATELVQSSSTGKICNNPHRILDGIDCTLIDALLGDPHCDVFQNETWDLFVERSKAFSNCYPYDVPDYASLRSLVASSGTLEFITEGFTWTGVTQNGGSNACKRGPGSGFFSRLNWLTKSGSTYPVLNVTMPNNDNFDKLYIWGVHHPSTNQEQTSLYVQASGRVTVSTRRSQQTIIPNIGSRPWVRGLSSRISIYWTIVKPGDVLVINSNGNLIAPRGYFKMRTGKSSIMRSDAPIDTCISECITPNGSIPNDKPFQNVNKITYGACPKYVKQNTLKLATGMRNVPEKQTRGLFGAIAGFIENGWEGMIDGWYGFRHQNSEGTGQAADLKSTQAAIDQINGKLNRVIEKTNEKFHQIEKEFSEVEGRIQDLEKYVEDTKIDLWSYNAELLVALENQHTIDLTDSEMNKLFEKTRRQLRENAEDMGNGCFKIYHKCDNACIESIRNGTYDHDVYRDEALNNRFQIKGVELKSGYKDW

Sequence of recombinant soluble trimeric H3 HA of A/Hong Kong/1/1968 H3N2 (HK68 H3) (Q91MA7 17-530): as above

B1: recombinant H7-235 IgG1 (rH7-235 IgG1) (antibody, V domains shown)
VH: QVQLVESGGGVVQPGESLRLSCAASGFAFRTYGMHWVRQAPGKGLEWVGVIWYDGSNKYYGDSVKGRFTISRDNSQNTLYLQMNSLRAEDTAVYYCARNGERWRVEDYYYGMDVWGQGTLVTVSS
VL: EIVMTQSPLSLPVTPGEPASISCRSSQSLLHSNAHNYLDWYLQKPGQSPQLLIYLGSNRASGVPDRFSGSGSGTDFTLKISRVEAEDVGIYYCMQALQTPITFGQGTRLEIK
notes: IgG1; also called rH7-235 mAb; mAb H7-235; copies: 2 + 2
Turning to B1, the binding result in experiment [1] was “no binding”.

B2: rH7-235rev IgG1 (germline revertant form of rH7-235 IgG) (antibody, V domains shown)
VH: QVQLVESGGGVVQPGRSLRLSCAASGFTFSSYGMHWVRQAPGKGLEWVAVIWYDGSNKYYADSVKGRFTISRDNSKNTLYLQMNSLRAEDTAVYYCARNGERWRVEDYYYGMDVWGQGTLVTVSS
VL: not shown
Take B2: the binding result in experiment [2] is on record as “no binding (tested: >10,000 ng/mL)”.

B3: rH7-235 IgG1 (recombinant human monoclonal antibody H7-235) (antibody, V domains shown)
VH: QVQLVESGGGVVQPGESLRLSCAASGFAFRTYGMHWVRQAPGKGLEWVGVIWYDGSNKYYGDSVKGRFTISRDNSQNTLYLQMNSLRAEDTAVYYCARNGERWRVEDYYYGMDVWGQGTLVTVSS
VL: EIVMTQSPLSLPVTPGEPASISCRSSQSLLHSNAHNYLDWYLQKPGQSPQLLIYLGSNRASGVPDRFSGSGSGTDFTLKISRVEAEDVGIYYCMQALQTPITFGQGTRLEIK
notes: also called mAb H7-235; source: Expi293F, transient transfection, purified (MabSelect Sure)
For B3, in experiment [2], the binding result is listed as “no binding (tested: >10,000 ng/mL)”.
